In this test the target is T1, 带有His组氨酸标签蛋白的人ST2重组蛋白 (human, UniProt Q01638 19-328, limits assumed).
T1 construct: Captured on a His-capture BLI sensor; also called His-tagged recombinant human ST2 protein; not shown: His tag
T1 sequence (looked up): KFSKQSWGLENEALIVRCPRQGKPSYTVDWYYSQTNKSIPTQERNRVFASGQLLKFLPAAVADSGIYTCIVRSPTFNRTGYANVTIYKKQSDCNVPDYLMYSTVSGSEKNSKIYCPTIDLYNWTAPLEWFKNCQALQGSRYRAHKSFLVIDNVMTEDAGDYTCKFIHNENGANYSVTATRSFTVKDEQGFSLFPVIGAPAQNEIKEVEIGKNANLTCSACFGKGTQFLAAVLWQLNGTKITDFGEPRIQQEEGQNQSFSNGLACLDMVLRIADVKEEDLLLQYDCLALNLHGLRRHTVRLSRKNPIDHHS
As to the kind of experiment: BLI, His-tagged human ST2 captured on HIS sensor, antibody in solution at several concentrations.

B1: 检测抗体D12(抗人ST2的单克隆抗体) (antibody, V domains shown)
VH: QVTLKESGPGILQPSQTLSLTCSFSGFSLSTSGMGVGWIRQPSGKGLEWLAHIWWDDVKQYNPALKSRLTISKDTSSSQVFLKIASVDTADIATYYCARLGGNWDYFDYWGQGTTLTVSS
VL: DIVLTQSPASLVVSLGQRATISCRASESVDSCGVSFMKWLQQKPGQPPKLLIYVASKVESGVPARFGGSGSGTDFSLNIHPVEEDDFAVYFCQQSRKVPWTFGGGTKLEIK
notes: Mouse hybridoma monoclonal antibody purified from ascites on Protein G; HRP-labelled in one orientation of the sandwich ELISA; coupled to fluorescent microspheres in the strip; also called detection antibody
For the molecule B1, binding was characterised by a dissociation constant (Kd) of 0.02 nM.

The values above are taken from patent publication CN117024595A (JIANGXI LECHENG XINSHENG BIOTECHNOLOGY RES CO LTD, dated 2023).
